Source: patent publication US10864252B2, “Anti-SSX-2 T cell receptors and related materials and methods of use” (The United States of America, as represented by the …, priority 2010, dated 2020)

How the values were obtained:
293-A2 = assay: IFN-γ release, co-culture with 293-A2; type: cell-based; conditions: co-cultured with 293-A2
Excerpt: (§1) SSX-2 TCR-transduced PBLs were co-cultured with various tumor cell lines. […] FIGS. 4A and 4B, FIG. 11, and Tables 3 and 4 show additional results of PBLs from human donors that were transduced with the SSX-2 TCR of Example 2 when these PBLs were co-cultured with various tumor cells. PBLs that were untransduced (UT) or transduced with a vector comprising SEQ ID NO: 27 (SSX-2 TCR), SEQ ID NO: 29 (codon-optimized SSX-2 TCR), or SEQ ID NO: 30 (codon-optimized SSX-2 TCR including mouse constant region) were co-cultured with various tumor cell lines. Tables 5 and 6 show the resulting interferon-γ levels (pg/ml) measured with respect to PBL from two different donors.

[1] = IFN-γ release, transduced PBL without target cells (medium / T cell alone); type: cell-based, human; conditions: for IFN-γ: MEDIUM, no target cells; for interferon-γ levels: T cell alone
Excerpt: as §1

293-A2 SSX2 = assay: IFN-γ release, co-culture with 293-A2 SSX2; type: cell-based; conditions: co-cultured with 293-A2 SSX2
Excerpt: as §1

OVCAR3 = assay: IFN-γ release, co-culture with OVCAR3; type: cell-based; conditions: co-cultured with OVCAR3
Excerpt: (§2) SSX-2 TCR-transduced PBLs were co-cultured with various tumor cell lines. […] FIGS. 4A and 4B, FIG. 11, and Tables 3 and 4 show additional results of PBLs from human donors that were transduced with the SSX-2 TCR of Example 2 when these PBLs were co-cultured with various tumor cells.

SKMEL 23 = assay: IFN-γ release, co-culture with SKMEL 23; type: cell-based; conditions: co-cultured with SKMEL 23
Excerpt: as §2

COS-A2-SSX2 cells = assay: CD137 (4-1BB) upregulation after co-culture with COS-A2-SSX2 cells; type: cell-based; conditions: FACS after co-culture with COS-A2-SSX2 cells
K562 = assay: IFN-γ release, co-culture with K562; type: cell-based; conditions: co-cultured with K562
Excerpt: PBLs that were untransduced (UT) or transduced with a vector comprising SEQ ID NO: 27 (SSX-2 TCR), SEQ ID NO: 29 (codon-optimized SSX-2 TCR), or SEQ ID NO: 30 (codon-optimized SSX-2 TCR including mouse constant region) were co-cultured with various tumor cell lines. Tables 5 and 6 show the resulting interferon-γ levels (pg/ml) measured with respect to PBL from two different donors.

[2] = test system: SSX-2+/HLA-A2+ target cells; assay: Percent lysis of target cells; type: cell-based; conditions: FIGS. 7A-D and 8A-D, various E:T ratios
H82 = assay: IFN-γ release, co-culture with H82; type: cell-based; conditions: co-cultured with H82
Excerpt: as §2

[3] = molecular target: T1, SSX-2: 41-49 (KASEKIFYV) peptide (Homo sapiens, UniProt Q16385); assay: IFN-γ release, co-culture with T2 cells pulsed with SSX-2: 41-49 peptide; type: cell-based
T1 construct: host or cells: T2 cells (peptide-pulsed)
Excerpt: SSX-2 TCR-transduced PBLs were co-cultured with T2 cells from two human donors, where the T2 cells were pulsed with varying concentrations of the SSX-2: 41-49 (KASEKIFYV) peptide. FIGS. 1A and 1B show the resulting interferon-γ levels (pg/ml) measured. […] The differences between FIGS. 1A and 1B may be due to donor variability.
PBLs that were untransduced (UT) or transduced with a vector comprising SEQ ID NO: 27 (SSX-2 TCR), SEQ ID NO: 29 (codon-optimized SSX-2 TCR), or SEQ ID NO: 30 (codon-optimized SSX-2 TCR including mouse constant region) were co-cultured with T2 cells that were pulsed with an SSX-2 were pulsed with varying concentrations of the SSX-2: 41-49 (KASEKIFYV) (SEQ ID NO: 1) peptide.

COS-A2 SSX2 = assay: IFN-γ release, co-culture with COS-A2 SSX2; type: cell-based; conditions: co-cultured with COS-A2 SSX2
Excerpt: as §1

888 = assay: IFN-γ release, co-culture with 888; type: cell-based; conditions: co-cultured with 888
Excerpt: as §2

U251 Glioma = assay: IFN-γ release, co-culture with U251 glioma; type: cell-based; conditions: co-cultured with U251 (Glioma)
Excerpt: as §1

SK MEL37 = assay: IFN-γ release, co-culture with SK MEL37 melanoma; type: cell-based; conditions: co-cultured with SK MEL37 (Melanoma)
Excerpt: as §1

COS-A2-SSX-2 cells = assay: Proliferation ([3H]-thymidine) on co-culture with COS-A2-SSX-2 cells; type: cell-based; conditions: PBL from Donor 1 or Donor 2; FIGS. 6A, 6B
Description: PBLs from Donor 1 or Donor 2 that were untransduced (UT) or transduced with a vector comprising SEQ ID NO: 27 (SSX-2 TCR), SEQ ID NO: 29 (codon-optimized SSX-2 TCR), or SEQ ID NO: 30 (codon-optimized SSX-2 TCR including mouse constant region) were co-cultured with COS-A2-SSX-2 cells. Proliferation in terms of [^3H]-thymidine incorporation (CPM) was measured and is shown in FIG. 6A (Donor 1) and 6B (Donor 2).

COS-A2 = assay: IFN-γ release, TCR-transduced PBL co-cultured with COS-A2; type: cell-based; conditions: for IFN-γ: human donor PBL co-cultured with COS-A2; for interferon-γ levels: co-cultured with Cos-A2
Excerpt: as §1

[4] = test system: SSX2+/HLA-A2+ target cells; assay: Proliferation ([3H]-thymidine) on co-culture with tumor cells; type: cell-based; conditions: 1300 mel, 624 mel, 888 mel, SK mel 37 or COS-A2-SSX-2 cells; FIGS. 9A-9E
Excerpt: In another experiment, PBLs transduced as described in this example were co-cultured with 1300 mel cells, 624 mel cells, 888 mel cells, SK mel 37 cells, or COS-A2-SSX-2 cells.

938 mel = assay: IFN-γ release, co-culture with 938; type: cell-based; conditions: for IFN-γ: co-cultured with 938; for interferon-γ levels: co-cultured with 938 mel
Excerpt: as §1

T567A = assay: IFN-γ release, co-culture with T567A melanoma; type: cell-based; conditions: co-cultured with T567A (Melanoma)
Excerpt: as §2

B1: SSX2-TCR-WT: HLA-A2 restricted anti-SSX-2 TCR alpha and beta chains encoded by SEQ ID NO: 27, tested as transduced human PBLs (protein)
chain: MSLSSLLKVVTASLWLGPGIAQKITQTQPGMFVQEKEAVTLDCTYDTSDPSYGLFWYKQPSSGEMIFLIYQGSYDQQNATEGRYSLNFQKARKSANLVISASQLGDSAMYFCAMTSGFGNEKLTFGTGTRLTIIPNIQNPDPAVYQLRDSKSSDKSVCLFTDFDSQTNVSQSKDSDVYITDKTVLDMRSMDFKSNSAVAWSNKSDFACANAFNNSIIPEDTFFPSPESSCDVKLVEKSFETDTNLNFQNLSVIGFRILLLKVAGFNLLMTLRLWSSRAKRSGSGATNFSLLKQAGDVEENPGPMGPGLLHWMALCLLGTGHGDAMVIQNPRYQVTQFGKPVTLSCSQTLNHNVMYWYQQKSSQAPKLLFHYYDKDFNNEADTPDNFQSRRPNTSFCFLDIRSPGLGDAAMYLCATSRGQGGQPQHFGDGTRLSILEDLNKVFPPEVAVFEPSEAEISHTQKATLVCLATGFFPDHVELSWWVNGKEVHSGVSTDPQPLKEQPALNDSRYCLSSRLRVSATFWQNPRNHFRCQVQFYGLSENDEWTQDRAKPVTQIVSAEAWGRADCGFTSVSYQQGVLSATILYEILLGKATLYAVLVSALVLMAMVKRKDF
- IFN-γ (293-A2; Table 3): 173 pg/mL
- IFN-γ (293-A2; Table 4): 144 pg/mL
- interferon-γ levels (293-A2; Table 5 donor): 582 pg/mL
- interferon-γ levels (293-A2; Table 6 donor): 1520 pg/mL
- IFN-γ ([1]; Table 3): 0 pg/mL
- IFN-γ ([1]; Table 4): 0 pg/mL
- interferon-γ levels ([1]; Table 5 donor): 165 pg/mL
- interferon-γ levels ([1]; Table 6 donor): 322 pg/mL
- IFN-γ (293-A2 SSX2; Table 3): 33913 pg/mL
- IFN-γ (293-A2 SSX2; Table 4): 20595 pg/mL
- IFN-γ (OVCAR3; Table 3): 0 pg/mL
- IFN-γ (OVCAR3; Table 4): 21 pg/mL
- IFN-γ (SKMEL 23; Table 3): 0 pg/mL
- IFN-γ (SKMEL 23; Table 4): 0 pg/mL
- activation marker CD137 (4-1BB) (COS-A2-SSX2 cells): upregulated
- interferon-γ levels (K562; Table 5 donor): 1969 pg/mL
- interferon-γ levels (K562; Table 6 donor): 1807 pg/mL
- lytic activity (percent lysis) [2]: specific lytic activity against SSX-2^+/HLA-A2^+ target cells
- IFN-γ (H82; Table 3): 141 pg/mL
- IFN-γ (H82; Table 4): 100 pg/mL
- recognition of SSX-2: 41-49 peptide (IFN-γ) ([3]; FIG. 10): recognize SSX-2: 41-49 peptide
- lowest SSX-2: 41-49 peptide concentration recognized (IFN-γ) ([3]; T2 cells from two human donors pulsed with varying peptide concentrations, FIGS. 1A, 1B): ≤ 0.01 ng/mL
- IFN-γ (COS-A2 SSX2; Table 3): 36070 pg/mL
- IFN-γ (COS-A2 SSX2; Table 4): 56820 pg/mL
- IFN-γ (888; Table 3): 126 pg/mL
- IFN-γ (888; Table 4): 143 pg/mL
- IFN-γ (U251 Glioma; Table 3): 9770 pg/mL
- IFN-γ (U251 Glioma; Table 4): 12025 pg/mL
- IFN-γ (SK MEL37; Table 3): 10000 pg/mL
- IFN-γ (SK MEL37; Table 4): 9720 pg/mL
- proliferation ([3H]-thymidine incorporation) (COS-A2-SSX-2 cells): proliferate in response to co-culture with COS-A2-SSX-2 cells
- IFN-γ (COS-A2; Table 3): 297 pg/mL
- IFN-γ (COS-A2; Table 4): 180 pg/mL
- interferon-γ levels (COS-A2; Table 5 donor): 2839 pg/mL
- interferon-γ levels (COS-A2; Table 6 donor): 460 pg/mL
- proliferation ([3H]-thymidine incorporation) [4]: proliferate in response to co-culture with SSX2+/HLA-A2+ target cells
- IFN-γ (938 mel; Table 3): 0 pg/mL
- IFN-γ (938 mel; Table 4): 0 pg/mL
- interferon-γ levels (938 mel; Table 5 donor): 1239 pg/mL
- interferon-γ levels (938 mel; Table 6 donor): 1451 pg/mL
- IFN-γ (T567A; Table 3): 10280 pg/mL
- IFN-γ (T567A; Table 4): 13245 pg/mL
